The record followed here is article PMC4319893, “Targeting Protein-Protein Interactions with Trimeric Ligands: High Affinity Inhibitors of the MAGUK Protein Family” (PLoS ONE, 2015).

Among the targets are PSD-95 PDZ1-2-3 (human); PSD-95 PDZ2 (human); PSD-95 PDZ1 (human); PSD-95 PDZ1-2 (human).
Holding throughout (assay): fluorescence polarisation; monomeric FP assay with monomeric fluorescent peptide probes (PSD-95 PDZ1-2, PDZ1-2-3 and single PDZ domains); 50 mM TRIS, 100 mM NaCl, 1 mM EDTA, 1 mM DTT

On to CRIPT hexapeptide YKQTSV (1), for which the fold lower affinity than 17 in the assay with PSD-95 PDZ1-2-3 (human) and with PSD-95 PDZ1-2 (human) was more than 1000 fold each time. The affinity with PSD-95 PDZ2 (human) came out at 25 µM; in the assay with PSD-95 PDZ1 (human), 97 µM.
